Where a SMILES comes first, the peptide text is derived from it. Where no end group is shown, it is not given here. Side-chain parts run from the residue outwards. [ ]: non-standard residue; d: D form. The star is where a group is joined. DOTA = O=C(O)CN1CCN(CC(=O)O)CCN(CC(=O)*)CCN(CC(=O)O)CC1; hArg = N=C(N)NCCCC[C@H](N)C(=O)O; Dab = NCC[C@H](N)C(=O)O; Ahx = NCCCCCC(=O)O
How the values were obtained:
VEGF-A165/NRP-1 complex = biological target: T1, VEGF-A165/NRP-1 complex (Homo sapiens, UniProt O14786); experiment: Competitive NRP-1-binding inhibition assay (competitive ELISA, bt-VEGF-A165 vs coated NRP-1); conditions: for logIC50 ± SD / IC50: inhibition of VEGF-A165/NRP-1 complex formation, mean ± SD, n = 3; for binding affinity for NRP-1: summary of competitive ELISA results
T1 construct: purchased BioLegend (NRP-1); Abcam (bt-VEGF-A165)
T1 sequence (O14786 22-641 limits assumed): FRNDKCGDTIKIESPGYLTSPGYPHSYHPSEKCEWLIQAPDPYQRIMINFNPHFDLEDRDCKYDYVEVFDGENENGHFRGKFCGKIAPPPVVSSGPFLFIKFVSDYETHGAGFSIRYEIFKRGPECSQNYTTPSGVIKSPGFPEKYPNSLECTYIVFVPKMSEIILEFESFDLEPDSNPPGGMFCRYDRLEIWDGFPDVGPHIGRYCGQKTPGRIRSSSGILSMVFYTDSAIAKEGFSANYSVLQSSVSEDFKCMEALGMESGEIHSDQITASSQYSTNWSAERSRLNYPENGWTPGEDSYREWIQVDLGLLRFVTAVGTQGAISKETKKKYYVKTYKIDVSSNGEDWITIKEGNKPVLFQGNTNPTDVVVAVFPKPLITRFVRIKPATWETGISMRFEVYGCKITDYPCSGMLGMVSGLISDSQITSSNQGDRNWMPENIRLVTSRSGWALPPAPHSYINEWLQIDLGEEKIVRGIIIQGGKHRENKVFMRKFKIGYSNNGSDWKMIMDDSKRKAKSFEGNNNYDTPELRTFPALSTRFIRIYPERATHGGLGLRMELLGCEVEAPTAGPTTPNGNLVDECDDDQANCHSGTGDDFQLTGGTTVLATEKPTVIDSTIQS
Experimental: The study of biological activity (inhibition of VEGF-A165/NRP-1 binding) of Sc-1, Sc-1bis, Sc-2, Sc-3 and Ga-3 compounds was tested by competitive ELISA test. The method used was similar to the one previously described. Briefly, the first step was to coat the bottom surface of a 96-well plate using 100 µL (200 ng/well) of recombinant human NRP-1 and incubate overnight at 4 °C. Nonspecific binding was blocked with 0.5% BSA (bovine serum albumin) in PBS. Following this, 50 µL of the solution of tested compound in PBS, in the selected concentrations (100 [µM], 50 [µM], 25 [µM], 12.5 [µM] and […]), and 50 µL (400 ng/mL) of human (bt)-VEGF-A165 in PBS containing 4 µg/mL of heparin were added. After 2 h of incubation at room temperature, the plate was washed and treated with a streptavidin–horseradish peroxidase conjugate in PBS (1:100) for 45 min. After the final wash, the chemiluminescence was quantified immediately after addition of 100 μL chemiluminescent substrate. Wells incubated with (bt)-VEGF-A165 served only as positive control (P), while wells not coated with NRP-1 were used as negative control (NS). Percentages of inhibition were calculated according to the following formula. % inhibition=100% −(S−NS)·100%/P−NS where: S—measured signal, NS—negative control signal, P—positive control signal. Test IC50 [µM] values (mean ± SD of three independent experiments) were determined by nonlinear regression analysis (log(inhibitor) vs. normalized response—variable slope) generated in GraphPad Prism 9.0.0 program (Graph Pad, San Diego, CA, USA).

physchem = assay type: physicochemical; conditions: for logP: pH 7.4, logP ± SD; for logP ± SD: pH 7.4
Experimental: The lipophilicity value, defined as the decimal logarithm (logP) of the partition coefficient (P), was tested in the system of two immiscible (but saturated with each other) phases: 0.1 M PBS solution, pH 7.4, and n-octanol, in three independent experiments. Partition coefficient was determined as a ratio of radioactivity of the organic (n-octanol) and aqueous (PBS solution) phases and was shown as the mean ± SD. The lipophilicity test was carried out as follows: the tested radiocompound dissolved in 10–20 µL of PBS was incubated and intensively mixed in an equal amount of these two phases. After centrifugation, radioactivity of appropriate amounts of the separated organic (500 µL) and aqueous (100 µL) phases were measured on the Wizard gamma counter. Differences in the volume of phases taken for measurement resulted from the very low radioactivity of organic phases and were included in the calculations. Additionally, to confirm the stability of the studied radiocompounds during the experiment, the RP-HPLC analyses of the aqueous phase were performed after each lipophilicity test.

[1] = assay type: in vitro ADME, human
Experimental: (§1) Radioconjugate stability tests in 0.1 M PBS solution, 1 mM cysteine (Cys) solution, 1 mM histidine (His) solution and human serum (HS) were performed under rigorous conditions according to the procedure described in detail in our previous paper. In brief, isolated radioconjugates were dissolved in 50 µL PBS and appropriate volume of Cys, His and HS solution and then incubated at 37 °C. After the specified incubation time (depending on the half-life of a given radionuclide), which was up to 4–8 h for the ^44Sc-radiocompounds, 4 h for the ^68Ga-radiocompounds and about 6–14 days for the ^177Lu-radiocompounds, aliquots of solution were withdrawn from the mixture and the composition of the solution was analyzed on RP-HPLC in System 3 or 4 with gamma detection. The concentrations of Cys and His solutions were about 1000 times higher than that of the studied radiocompound. In the case of the radioconjugate stability study in HS, the concentration of the radiocompound was a maximum of 2–25 nmol/mL in 100% human serum. After incubation, the protein components were precipitated with a 2.5-fold volume excess of ethanol prior to RP-HPLC analysis, and then both the supernatant and precipitate radioactivity were measured with a Wizard gamma counter. The percentage of radioactivity remaining in the supernatant and bound by the precipitated serum protein components was calculated as the ratio of the radioactivity of the supernatant or the precipitate, respectively, to the sum of the radioactivity of the supernatant and the precipitate.

[2] = assay type: physicochemical; conditions: pH 7.4
Experimental: as §1

Row | Compound | logIC50 ± SD (VEGF-A165/NRP-1 complex) | binding affinity for NRP-1 (VEGF-A165/NRP-1 complex) | stability in human serum [1] | stability in PBS buffer [2] | further results
1 | N=C(N)NCCCC[C@H](N)C(=O)NCCCC[C@H](N)C(=O)N[C@@H](CCNC(=O)CCCCCNC(=O)CN1CCN(CC(=O)O)CCN(CC(=O)O)CCN(CC(=O)O)CC1)C(=O)N1CCC[C@H]1C(=O)N[C@@H](CCCNC(=N)N)C(=O)O [Sc-2, Lys(hArg)-Dab(Ahx-DOTA-Sc)-Pro-Arg] (H-K(hArg)[Dab]([Ahx-DOTA])PR-OH) | −4.73 ± 0.03 | high binding affinity | – | – | –
2 | CC(C)C[C@H](NC(=O)[C@H](Cc1c[nH]c2ccccc12)NC(=O)[C@@H](NC(=O)[C@H](C)NC(=O)CCCCCNC(=O)CN1CCN(CC(=O)O)CCN(CC(=O)O)CCN(CC(=O)O)CC1)[C@@H](C)O)C(=O)N1CCC[C@H]1C(=O)N1CCC[C@H]1C(=O)N[C@@H](CCCNC(=N)N)C(=O)O [^44Sc-1, [^44Sc]Sc-DOTA-Ahx-A7R, metal not drawn] ({DOTA-Ahx}-ATWLPPR-OH) | – | – | insufficient stability | complete stability | logP (physchem): -3.44 ± 0.02
3 | CC(C)C[C@H](NC(=O)[C@H](Cc1c[nH]c2ccccc12)NC(=O)[C@@H](NC(=O)[C@H](C)NC(=O)[C@@H](N)CCCCNC(=O)CN1CCN(CC(=O)O)CCN(CC(=O)O)CCN(CC(=O)O)CC1)[C@@H](C)O)C(=O)N1CCC[C@H]1C(=O)N1CCC[C@H]1C(=O)N[C@@H](CCCNC(=N)N)C(=O)O [^44Sc-1bis, [^44Sc]Lys(DOTA-Sc)-A7R, metal not drawn] (H-K(DOTA)ATWLPPR-OH) | – | – | insufficient stability | complete stability | logP ± SD (physchem): −3.56 ± 0.06
4 | N=C(N)NCCCC[C@H](N)C(=O)NCCCC[C@H](N)C(=O)N[C@@H](CCN)C(=O)N1CCC[C@H]1C(=O)N[C@@H](CCCNC(=N)N)C(=O)O [K4R, Lys(hArg)-Dab-Pro-Arg] (H-K(hArg)[Dab]PR-OH) | −5.32 ± 0.12 | high binding affinity | – | – | –
5 | CC(C)C[C@H](NC(=O)[C@H](Cc1c[nH]c2ccccc12)NC(=O)[C@@H](NC(=O)[C@H](C)NC(=O)[C@@H](N)CCCCNC(=O)CN1CCN(CC(=O)O)CCN(CC(=O)O)CCN(CC(=O)O)CC1)[C@@H](C)O)C(=O)N1CCC[C@H]1C(=O)N1CCC[C@H]1C(=O)N[C@@H](CCCNC(=N)N)C(=O)O [^177Lu-1bis, [^177Lu]Lys(DOTA-Lu)-A7R, metal not drawn] (H-K(DOTA)ATWLPPR-OH) | – | – | insufficient stability | complete stability | logP ± SD (physchem): −4.45 ± 0.03
6 | CC(C)C[C@H](NC(=O)[C@H](Cc1c[nH]c2ccccc12)NC(=O)[C@@H](NC(=O)[C@H](C)NC(=O)CCCCCNC(=O)CN1CCN(CC(=O)O)CCN(CC(=O)O)CCN(CC(=O)O)CC1)[C@@H](C)O)C(=O)N1CCC[C@H]1C(=O)N1CCC[C@H]1C(=O)N[C@@H](CCCNC(=N)N)C(=O)O [Sc-1, Sc-DOTA-Ahx-A7R] ({DOTA-Ahx}-ATWLPPR-OH) | −4.65 ± 0.12 | high binding affinity | – | – | –
7 | CC(C)C[C@H](NC(=O)[C@H](Cc1c[nH]c2ccccc12)NC(=O)[C@@H](NC(=O)[C@H](C)NC(=O)[C@@H](N)CCCCNC(=O)CN1CCN(CC(=O)O)CCN(CC(=O)O)CCN(CC(=O)O)CC1)[C@@H](C)O)C(=O)N1CCC[C@H]1C(=O)N1CCC[C@H]1C(=O)N[C@@H](CCCNC(=N)N)C(=O)O [^68Ga-1bis, [^68Ga]Lys(DOTA-Ga)-A7R, metal not drawn] (H-K(DOTA)ATWLPPR-OH) | – | – | insufficient stability | complete stability | logP ± SD (physchem): −4.18 ± 0.07
8 | CC(C)C[C@@H](NC(=O)[C@H]1CCCN1C(=O)[C@H]1CCCN1C(=O)[C@H](N)CCCNC(=N)N)C(=O)N[C@H](Cc1c[nH]c2ccccc12)C(=O)N[C@@H](C(=O)N[C@H](C)C(=O)N[C@H](CCCCNC(=O)CN1CCN(CC(=O)O)CCN(CC(=O)O)CCN(CC(=O)O)CC1)C(=O)O)[C@H](C)O [Sc-3, ^DR7A-^DLys(DOTA-Sc)] (H-[dR][dP][dP][dL][dW][dT][dA][dK](DOTA)-OH) | – | very low binding affinity | – | – | –
9 | N=C(N)NCCCC[C@H](N)C(=O)NCCCC[C@H](N)C(=O)N[C@@H](CCNC(=O)CCCCCNC(=O)CN1CCN(CC(=O)O)CCN(CC(=O)O)CCN(CC(=O)O)CC1)C(=O)N1CCC[C@H]1C(=O)N[C@@H](CCCNC(=N)N)C(=O)O [^44Sc-2, [^44Sc]Sc-DOTA-Ahx-K4R, metal not drawn] (H-K(hArg)[Dab]([Ahx-DOTA])PR-OH) | – | – | insufficient stability | complete stability | logP (physchem): -2.57 ± 0.02
10 | CC(C)C[C@@H](NC(=O)[C@H]1CCCN1C(=O)[C@H]1CCCN1C(=O)[C@H](N)CCCNC(=N)N)C(=O)N[C@H](Cc1c[nH]c2ccccc12)C(=O)N[C@@H](C(=O)N[C@H](C)C(=O)N[C@H](CCCCNC(=O)CN1CCN(CC(=O)O)CCN(CC(=O)O)CCN(CC(=O)O)CC1)C(=O)O)[C@H](C)O [Ga-3, ^DR7A-^DLys(DOTA-Ga)] (H-[dR][dP][dP][dL][dW][dT][dA][dK](DOTA)-OH) | – | – | – | – | IC50 (VEGF-A165/NRP-1 complex): > 100 µM
11 | ATWLPPR-OH [A7R, Ala-Thr-Trp-Leu-Pro-Pro-Arg, reference compound] | −4.74 ± 0.02 | high binding affinity | – | – | –
12 | CC(C)C[C@H](NC(=O)[C@H](Cc1c[nH]c2ccccc12)NC(=O)[C@@H](NC(=O)[C@H](C)NC(=O)[C@@H](N)CCCCNC(=O)CN1CCN(CC(=O)O)CCN(CC(=O)O)CCN(CC(=O)O)CC1)[C@@H](C)O)C(=O)N1CCC[C@H]1C(=O)N1CCC[C@H]1C(=O)N[C@@H](CCCNC(=N)N)C(=O)O [Sc-1bis, Lys(DOTA-Sc)-A7R] (H-K(DOTA)ATWLPPR-OH) | −4.74 ± 0.01 | high binding affinity | – | – | –
13 | CC(C)C[C@@H](NC(=O)[C@H]1CCCN1C(=O)[C@H]1CCCN1C(=O)[C@H](N)CCCNC(=N)N)C(=O)N[C@H](Cc1c[nH]c2ccccc12)C(=O)N[C@@H](C(=O)N[C@H](C)C(=O)O)[C@H](C)O [^DR7A, DArg-DPro-DPro-DLeu-DTrp-DThr-DAla, reference compound] (H-[dR][dP][dP][dL][dW][dT][dA]-OH; C-terminus assumed) | – | very low binding affinity | – | – | IC50 (VEGF-A165/NRP-1 complex): > 100 µM

Reference: article PMC9953004, “Scandium-44 Radiolabeled Peptide and Peptidomimetic Conjugates Targeting Neuropilin-1 Co-Receptor as Potential Tools for Cancer Diagnosis and Anti-Angiogenic Therapy” (Biomedicines, 2023)
